Positions count from the first letter of the chain named. Names and notes keep the numbering of the source.
B1: GM-ALS_P178A_W555L: highly resistant allele (HRA) double mutant of Glycine max ALS1: P→A at 178 and W→L at 555 (protein)
chain: MAATASRTTRFSSSSSHPTFPKRITRSTLPLSHQTLTKPNHALKIKCSISKPPTAAPFTKEAPTTEPFVSRFASGEPRKGADILVEALERQGVTTVFAYPGGASMEIHQALTRSAAIRNVLPRHEQGGVFAAEGYARSSGLPGVCIATSGPGATNLVSGLADALMDSVPVVAITGQVARRMIGTDAFQETPIVEVSRSITKHNYLILDVDDIPRVVAEAFFVATSGRPGPVLIDIPKDVQQQLAVPNWDEPVNLPGYLARLPRPPAEAQLEHIVRLIMEAQKPVLYVGGGSLNSSAELRRFVELTGIPVASTLMGLGTFPIGDEYSLQMLGMHGTVYANYAVDNSDLLLAFGVRFDDRVTGKLEAFASRAKIVHIDIDSAEIGKNKQAHVSVCADLKLALKGINMILEEKGVEGKFDLGGWREEINVQKHKFPLGYKTFQDAISPQHAIEVLDELTNGDAIVSTGVGQHQMWAAQFYKYKRPRQWLTSGGLGAMGFGLPAAIGAAVANPGAVVVDIDGDGSFIMNVQELATIRVENLPVKILLLNNQHLGMVVQLEDRFYKSNRAHTYLGDPSSESEIFPNMLKFADACGIPAARVTKKEELRAAIQRMLDTPGPYLLDVIVPHQEHVLPMIPSNGSFKDVITEGDGRTRY
modifications: ALS1 variant P178A W555L
B2: GM-ALS_P178S: Glycine Max ALS1 variant with a P→S mutation at position 178 (protein)
chain: B1 chain with A178S, L555W
modifications: ALS1 variant P178S
B3: GM-ALS_P178S_D357E: Glycine Max ALS1 with P→S at position 178 and D→E at position 357 (protein)
chain: B1 chain with A178S, D357E, L555W
modifications: ALS1 variant P178S D357E
B4: GM-ALS_A103T_P178S: Glycine Max ALS1 with A→T at position 103 and P→S at position 178 (protein)
chain: B1 chain with A103T, A178S, L555W
modifications: ALS1 variant A103T P178S
B5: GM-ALS_A103T_P178S_D357E: Glycine Max ALS1 with A→T at 103, P→S at 178 and D→E at 357 (protein)
chain: B1 chain with A103T, A178S, D357E, L555W
modifications: ALS1 variant A103T P178S D357E
B6: GM-ALS_G102S: Glycine Max ALS1 variant with a G→S mutation at position 102 (protein)
chain: B1 chain with G102S, A178P, L555W
modifications: ALS1 variant G102S
B7: GM-ALS_G102S_P178S: Glycine Max ALS1 with G→S at position 102 and P→S at position 178 (protein)
chain: B1 chain with G102S, A178S, L555W
modifications: ALS1 variant G102S P178S
B8: GM-ALS_G102S_D357E: Glycine Max ALS1 with G→S at position 102 and D→E at position 357 (protein)
chain: B1 chain with G102S, A178P, D357E, L555W
modifications: ALS1 variant G102S D357E
B9: GM-ALS_G102S_D357N: Glycine Max ALS1 with G→S at position 102 and D→N at position 357 (protein)
chain: B1 chain with G102S, A178P, D357N, L555W
modifications: ALS1 variant G102S D357N
B10: GM-ALS_A103T: Glycine Max ALS1 variant with a A→T mutation at position 103 (protein)
chain: B1 chain with A103T, A178P, L555W
modifications: ALS1 variant A103T
B11: GM-ALS_P178A: Glycine Max ALS1 variant with a P→A mutation at position 178 (protein)
chain: B1 chain with L555W
modifications: ALS1 variant P178A
B12: GM-ALS_P178A_F559D: Glycine Max ALS1 with P→A at position 178 and F→D at position 559 (protein)
chain: B1 chain with L555W, F559D
modifications: ALS1 variant P178A F559D
B13: GM-ALS_P178L: Glycine Max ALS1 variant with a P→L mutation at position 178 (protein)
chain: B1 chain with A178L, L555W
modifications: ALS1 variant P178L
B14: GM-ALS_P178L_W555L: Glycine Max ALS1 with P→L at position 178 and W→L at position 555 (protein)
chain: B1 chain with A178L
modifications: ALS1 variant P178L W555L
B15: GM-ALS_P178Q: Glycine Max ALS1 variant with a P→Q mutation at position 178 (protein)
chain: B1 chain with A178Q, L555W
modifications: ALS1 variant P178Q
B16: GM-ALS_P178S_A186V: Glycine Max ALS1 with P→S at position 178 and A→V at position 186 (protein)
chain: B1 chain with A178S, A186V, L555W
modifications: ALS1 variant P178S A186V

Test system: G. max ALS1 protein
Assay: Substrate specificity ratio (Rf), pyruvate versus 2-ketobutyrate, LC-MS of reduced products
Assay type: biochemical, Glycine max
Conditions: ratio of [pyruvate] to [2-ketobutyrate] giving equal rates of acetolactate and acetohydroxybutyrate formation; 25 mM pyruvate
Source text: The “substrate specificity ratio”, or “Rf”, characterizes the specificity of the ALS enzyme for AHB formation relative to AL formation (Gollop et al. (1989) Biochemistry 28:6310-6317). Rf is the ratio of [pyruvate] to [2-ketobutyrate] that results in equal rates of formation of acetolactate and acetohydroxybutyrate. Rf is a constant at all substrate concentrations. The substrate specificity ratio is ˜114 for the wild type Glycine max ALS1 enzyme (SEQ ID NO:1) compared to ˜3 for the highly resistant allele (HRA) double mutant variant (SEQ ID NO: 10) of the Glycine max ALS1. The soybean HRA sequence is disclosed, for example, in WO2007/024782, herein incorporated by reference.
Substrate preference was determined using the assay described in Example 3; however, the assay was conducted using a constant concentration of pyruvate (25 mM) and varying concentrations of the second substrate, 2-ketobutyrate. Each reaction involving a specific ratio of pyruvate to 2-ketobutyrate, after a set period of time, was quenched by addition of sodium borohydride (7-fold excess) to form the reduced adducts of the products of the two substrates namely; reduced acetolactate for the reaction with pyruvate and reduced aceto hydroxybutyrate for the 2-ketobutyrate reaction. The relative amounts of the two reduced products was determined by first, chromatographic separation using a 4.6×250 mm dC18 column (Atlantis) equilibrated with a 0.1% formic acid solution and subsequent elution using a methanol gradient at 0.7 ml/min, followed by detection using a Thermo FINNIGAN® LTQ® Mass Spectrometer (MS). The products of the two reactions were quantified by integration of the MS signals. The % of the amount of each of the reduced products was then plotted versus the concentration of 2-ketobutyrate. As the 2-ketobutyrate amount increased there was a consequent increase in reduced acetohydroxybutyrate (AHB) and decrease in reduced acetolactate (AL). […] The substrate specificity ratio was ˜114 for the wild type enzyme compared to 3 for the highly resistant allele (HRA) double mutant ALS variant (SEQ ID NO: 10).

Molecule	Substrate specificity ratio (Rf)
B1	2.9
B2	104.0
B3	100.0
B4	75.0
B5	114.0
B6	10.2
B7	12.0
B8	16.9
B9	10.7
B10	83.3
B11	119.0
B12	100.0
B13	119.0
B14	2.7
B15	86.0
B16	29.0

Same assay, conditions: ratio of [pyruvate] to [2-ketobutyrate] giving equal rates of acetolactate and acetohydroxybutyrate formation; 25 mM pyruvate; listed as HRA

Molecule	Substrate specificity ratio (Rf)
B1	3

Test system: G. max ALS1 protein
Assay: Colorimetric ALS kinetic assay (Km, kcat) with pyruvate as substrate
Assay type: biochemical, Glycine max
Conditions: not given
Description: A survey of known ALS (AcetoLactate Synthase) gene variants (Table 2) was performed, and a number of ALS variants were selected for kinetic evaluation based on breadth and strength of insensitivity to ALS-inhibitor herbicides as well as kinetic activity parameters including the ratio of substrate preferences. The selected ALS gene variants (Table 3) were generated by PCR mediated site-directed mutagenesis. Finnzymes PHUSION® DNA polymerase (Cat. No. F-530S) was used for the PCR reactions, following the instructions for recommended temperatures and cycles in the PHUSION® protocol. Some mutagenesis reactions were assisted by the use of IN-FUSION® enzyme (Clontech Cat. No. 639620) to circularize a linear plasmid with the mutation located within the 15 nucleotide overlapping ends, via recombination following the manufacturer's protocol for primer design and reaction conditions. The ALS genes, beginning with encoded amino acids SISK, (S48 to K51 in the G. max ALS1 protein (SEQ ID NO:1) corresponding to the mature protein N-terminus of the chloroplast localized enzyme), were cloned into the PMAL® E. coli expression vector (New England Biolabs) to express ALS as a fusion protein with a Maltose-Binding Protein (MBP) at the N-terminus with a thrombin site for cleavage and a His-6 tag for affinity purification. All in vitro protein characterization described in the examples was carried out with the isolated proteins after cleavage from the His-MBP fusion partner.
Km and Kcat determinations for recombinant ALS variants (with respect to pyruvate as the substrate) were performed using a colorimetric assay. ALS assays were carried out in 96-well microplates with 150 ul reaction containing 25 mM potassium phosphate, 0.2 mg/ml BSA, 15 mM MgCl2, 0.7 mM TPP, 28 uM FAD and 0-100 mM sodium pyruvate. Reactions were initiated by the addition of ALS enzyme to a final amount of 0.8 ug/well. Parameters for Km and Vmax were determined by fitting the velocity versus substrate concentration data to a rectangular hyperbola using GraphPad Prism software. Kcat values were determined from Vmax based on protein concentration in the reactions.

Molecule	Km [mM]	kcat [s⁻¹]
B1	15	1.5
B2	1.6	1.15
B3	6	3.17
B4	10	2.08
B5	21	1.05
B6	3.5	1.33
B7	5	1.47
B8	8	1.75
B9	11	1.13
B10	3	1.82
B11	5	1.08
B12	40	0.6
B13	14.8	4.18
B14	36	0.35
B15	3	2.72
B16	21	0.45

Reference: patent US10294487B2, “Methods and compositions involving ALS variants with native substrate preference” (E I DU PONT DE NEMOURS AND COMPANY, priority 2012, dated 2019)
